Patent US7635557B2 (MND Diagnostic Ltd., priority 2003, dated 2009)
Ends that are not written are not given here.

What was measured:
[1] = target: T1, Rhinovirus HRV14 3C protease (Human rhinovirus 14, UniProt P03303); conditions: cited from earlier work
T1 construct: the human rhinovirus 14 3C proteinase, cloned and expressed in E. coli; host or cells: E. coli

[2] = target: T2, Human Rhinovirus serotype 1A 3C Protease (Human rhinovirus 1A, UniProt P23008); format: biochemical
T2 construct: is used to clone the 3C Protease into the expression vector pET16-b; made in house; host or cells: E. coli BL21-DE3-pLys-S
T2 sequence (P23008 1515-1697 limits assumed): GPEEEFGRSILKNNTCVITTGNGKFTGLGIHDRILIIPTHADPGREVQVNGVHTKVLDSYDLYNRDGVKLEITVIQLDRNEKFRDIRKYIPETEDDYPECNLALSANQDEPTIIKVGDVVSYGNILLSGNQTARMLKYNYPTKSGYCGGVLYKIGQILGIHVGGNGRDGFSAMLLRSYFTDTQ

[3] = target: T1, Rhinovirus HRV14 3C protease; format: biochemical

T1 sequence (P03303 1538-1719): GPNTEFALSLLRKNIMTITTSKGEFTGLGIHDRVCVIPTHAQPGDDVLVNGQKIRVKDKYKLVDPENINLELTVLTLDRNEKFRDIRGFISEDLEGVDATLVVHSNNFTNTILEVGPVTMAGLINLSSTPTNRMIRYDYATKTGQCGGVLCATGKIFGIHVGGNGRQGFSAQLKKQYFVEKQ

Question: With DSLETLFQGPVYK [I] as the substance, how does the Hydrolysis rate [1] read?
Answer: Its Hydrolysis rate is 355.

Question: What about the “Relative Hydrolysis rate” value [1] of the same substance?
Answer: The value was 1.00.

Question: For EAIAEEQGLSDYIT [II], which Hydrolysis rate [1] is on record?
Answer: The Hydrolysis rate was 8.

Question: And the “Relative Hydrolysis rate” value [1]?
Answer: Its value is 0.024.

Question: With KLFAQTQGPYSGNP [VI] as the substance, how does the Hydrolysis rate [1] read?
Answer: The Hydrolysis rate was 147.

Question: And the “Relative Hydrolysis rate” value [1]?
Answer: Its value is 0.44.

Question: With KQYFVEKQGQVIAR [VIII] as the substance, how does the Hydrolysis rate [1] read?
Answer: The Hydrolysis rate was 1.

Question: And the “Relative Hydrolysis rate” value [1]?
Answer: The value was 0.003.

Question: For “MOC-Arg-Ala-Glu-Leu-Gln-Gly-Pro-Tyr-Asp-Lys-DNP-NH2 (RAELQGPYDK; not fully specified; MOC fluorochrome, DNP quencher, C-terminal amide; Human rhinovirus 1A; MOC; fluorochrome) [dimodified decapeptide substrate (7-methoxy coumarin-4-acetic acid fluorochrome and dinitrophenol quencher)]”, which Km [2] is on record?
Answer: The Km was 16.8 µM.

Question: With RPVVVQGPN as the substance, how does the “best substrate chosen based on the reaction rates” value [3] read?
Answer: The value was “best peptide”.

Question: For SQTVALTEGLGDELEEY, which Hydrolysis rate [1] is on record?
Answer: Its Hydrolysis rate is 0.

Question: What about the “Relative Hydrolysis rate” value [1] of the same substance?
Answer: The value was 0.0005.

Question: Which results are given for VPYIERQANDGWFRK [III]?
Answer: Hydrolysis rate [1]: 0; Relative Hydrolysis rate [1]: 0.0005

Question: With YRPVVVQGPNTEF [VII] as the substance, how does the Hydrolysis rate [1] read?
Answer: Its Hydrolysis rate is 37.

Question: And the “Relative Hydrolysis rate” value [1]?
Answer: The value was 0.11.
